Reference: PMC10154249, “Unique progerin C-terminal peptide ameliorates Hutchinson–Gilford progeria syndrome phenotype by rescuing BUBR1” (Nature Aging, 2023)

Molecular target: T1, Flag-BUBR1 (human, UniProt O60566 1-1050)
T1 construct: also called Flag beads-BUBR1; source: eluted with 3×Flag peptide for MST, left on Flag beads for the pull-down
Assay: pull-down; 10 μg purified His-UPCP incubated with Flag beads, Flag beads-BUBR1 or Flag beads-PTBP1 for 16 h at 4 °C; beads washed three times with PBS
Conditions: both partners purified

T1 sequence (O60566 whole entry): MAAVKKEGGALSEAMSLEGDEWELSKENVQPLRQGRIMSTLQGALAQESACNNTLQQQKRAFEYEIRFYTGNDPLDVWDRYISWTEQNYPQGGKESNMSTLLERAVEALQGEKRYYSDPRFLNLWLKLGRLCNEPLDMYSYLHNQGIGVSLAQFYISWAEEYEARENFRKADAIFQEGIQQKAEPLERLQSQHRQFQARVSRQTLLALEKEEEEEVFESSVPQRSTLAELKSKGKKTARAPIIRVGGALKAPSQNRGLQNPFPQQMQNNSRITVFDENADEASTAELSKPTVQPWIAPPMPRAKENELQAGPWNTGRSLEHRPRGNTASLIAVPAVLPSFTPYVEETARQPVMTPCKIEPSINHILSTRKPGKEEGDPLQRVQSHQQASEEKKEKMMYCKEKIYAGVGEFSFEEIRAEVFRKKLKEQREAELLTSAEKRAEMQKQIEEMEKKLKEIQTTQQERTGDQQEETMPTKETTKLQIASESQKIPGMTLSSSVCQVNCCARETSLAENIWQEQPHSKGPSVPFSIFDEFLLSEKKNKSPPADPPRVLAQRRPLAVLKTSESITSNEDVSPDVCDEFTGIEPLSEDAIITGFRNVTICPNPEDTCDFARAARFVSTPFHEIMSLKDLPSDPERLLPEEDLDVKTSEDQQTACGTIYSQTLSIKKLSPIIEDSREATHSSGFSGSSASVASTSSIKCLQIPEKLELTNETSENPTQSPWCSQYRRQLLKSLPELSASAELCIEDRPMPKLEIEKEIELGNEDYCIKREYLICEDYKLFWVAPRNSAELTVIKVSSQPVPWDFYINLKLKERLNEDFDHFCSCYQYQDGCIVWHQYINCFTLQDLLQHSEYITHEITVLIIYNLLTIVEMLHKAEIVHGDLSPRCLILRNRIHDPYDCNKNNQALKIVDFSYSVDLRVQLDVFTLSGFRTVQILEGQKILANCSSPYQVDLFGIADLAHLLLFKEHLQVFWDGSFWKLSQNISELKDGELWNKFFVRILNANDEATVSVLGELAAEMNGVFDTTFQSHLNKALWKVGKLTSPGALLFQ

YGRKKRRQRRRYNLRSRTVLCGTCGQPADKASASGSGAQSPQNCSIM (also called His-tagged UPCP) [His-UPCP]
binding result: binds
